From patent publication US20230212304A1 (BIOSION, published 2023)

T1: recombinant human CTLA4-his protein (Acro biosystems, Cat#CT4-H5229) (human, UniProt P16410 37-162)
T1 construct: bought recombinant protein; not shown: his tag
T1 sequence (looked up): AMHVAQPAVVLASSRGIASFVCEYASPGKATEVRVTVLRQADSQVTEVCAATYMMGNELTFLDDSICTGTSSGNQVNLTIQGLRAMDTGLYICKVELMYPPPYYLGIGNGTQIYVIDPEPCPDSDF


target: T1, recombinant human CTLA4-his protein …; test: BLI, Octet; antibody from cell supernatant on AHC sensor, CTLA4-his as analyte
Procedure: Briefly, AHC biosensors (anti-human IgG Fc capture, from ForteBio) were presoaked with 10 mM glycine (pH 1.5) for 3 seconds, and then dipped in a well with running buffer (0.5% w/v BSA in PBST) for 3 seconds, the soaking and dipping steps were repeated for three times. […] A new baseline was run for 180 seconds in another well with running buffer. […] Finally, sensors were presoaked with 10 mM glycine (pH 1.5) for 3 seconds, and then were dipped in a well with running buffer for 3 seconds, the soaking and dipping steps repeated for three times. The association and dissociation curves were fit to a 1:1 Langmuir binding model using ForteBio Data Analysis 8.1.

| Binder | Kd | koff | kon |
| --- | --- | --- | --- |
| huD1D5-V7 (antibody, human IgG4 S228P, kappa, V domains shown, humanized IgG4/kappa; tested as 293F cell supernatant on Octet; also called hu CTLA4 D1D5-V7) VH: EVQLVESGGGLVKPGGSLRLSCAASGFTFSDYGMAWVRQAPGKGLEWVAFISNLAYSVYYADTETGRFTISRDDAKNSLYLQMNSLRAEDTAVYYCARSGLPYAMDYWGQGTTVTVSS VL: DIQMTQSPSSLSASVGDRVTITCRASQDISNYLNWYQQKPGKVPKLLIYYISRLHSGVPSRFSGSGSGTDFTLTISSLQPEDVATYFCQQGRMLPWTFGGGTKVEIKR | 10.2 nM | 0.000857 s⁻¹ | 83900 M⁻¹ s⁻¹ |
| huD1D5-V4 (antibody, human IgG4 S228P, kappa, V domains shown, humanized IgG4/kappa; tested as 293F cell supernatant on Octet; also called hu CTLA4 D1D5-V4) VH: EVQLVESGGGLVKPGGSLRLSCAASGFTFSDYGMAWVRQAPGKGLEWVSFISNLAYSVYYADTETGRFTISRDNAKNSLYLQMNSLRAEDTAVYYCARSGLPYAMDYWGQGTTVTVSS VL: DIQMTQSPSSLSASVGDRVTITCRASQDISNYLNWYQQKPGKTVKLLIYYISRLHSGVPSRFSGSGSGTDFTLTISSLQPEDVATYFCQQGRMLPWTFGGGTKVEIKR | 4.36 nM | 0.000408 s⁻¹ | 93500 M⁻¹ s⁻¹ |
| huD1D5-V8 (antibody, human IgG4 S228P, kappa, V domains shown, humanized IgG4/kappa; tested as 293F cell supernatant on Octet; also called hu CTLA4 D1D5-V8) VH: EVQLVESGGGLVKPGGSLRLSCAASGFTFSDYGMAWVRQAPGKGLEWVSFISNLAYSVYYADTETGRFTISRDNAKNSLYLQMNSLRAEDTAVYYCARSGLPYAMDYWGQGTTVTVSS VL: DIQMTQSPSSLSASVGDRVTITCRASQDISNYLNWYQQKPGKVPKLLIYYISRLHSGVPSRFSGSGSGTDFTLTISSLQPEDVATYFCQQGRMLPWTFGGGTKVEIKR | 68.1 nM | 0.00196 s⁻¹ | 28800 M⁻¹ s⁻¹ |
| huD1D5-V6 (antibody, human IgG4 S228P, kappa, V domains shown, humanized IgG4/kappa; tested as 293F cell supernatant on Octet; also called hu CTLA4 D1D5-V6) VH: EVQLVESGGGLVKPGGSLRLSCAASGFTFSDYGMAWVRQAPGKGLEWVAFISNLAYSVYYADTETGRFTISRDNAKNSLYLQMNSLRAEDTAVYYCARSGLPYAMDYWGQGTTVTVSS VL: DIQMTQSPSSLSASVGDRVTITCRASQDISNYLNWYQQKPGKVPKLLIYYISRLHSGVPSRFSGSGSGTDFTLTISSLQPEDVATYFCQQGRMLPWTFGGGTKVEIKR | 25.8 nM | 0.00157 s⁻¹ | 60900 M⁻¹ s⁻¹ |

The next binders have a lower Kd than those just listed; values first:

| Kd | koff | kon | Binder |
| --- | --- | --- | --- |
| 0.72 nM | 6.25e-05 s⁻¹ | 86800 M⁻¹ s⁻¹ | huD1D5-V2 (antibody, human IgG4 S228P, kappa, V domains shown, humanized IgG4/kappa; tested as 293F cell supernatant on Octet; also called hu CTLA4 D1D5-V2) VH: EVQLVESGGGLVKPGGSLRLSCAASGFTFSDYGMAWVRQAPGKGLEWVAFISNLAYSVYYADTETGRFTISRDNAKNSLYLQMNSLRAEDTAVYYCARSGLPYAMDYWGQGTTVTVSS VL: DIQMTQSPSSLSASVGDRVTITCRASQDISNYLNWYQQKPGKTVKLLIYYISRLHSGVPSRFSGSGSGTDFTLTISSLQPEDVATYFCQQGRMLPWTFGGGTKVEIKR |
| 1.73 nM | 0.00018 s⁻¹ | 104000 M⁻¹ s⁻¹ | huD1D5-V5 (antibody, human IgG4 S228P, kappa, V domains shown, humanized IgG4/kappa; tested as 293F cell supernatant on Octet; also called hu CTLA4 DID5-V5) VH: EVQLVESGGGLVKPGGSLRLSCAASGFTFSDYGMAWVRQAPGKGPEWVAFISNLAYSVYYADTETGRFTISRDDAKNSLYLQMNSLRAEDTAVYYCARSGLPYAMDYWGQGTTVTVSS VL: DIQMTQSPSSLSASVGDRVTITCRASQDISNYLNWYQQKPGKVPKLLIYYISRLHSGVPSRFSGSGSGTDFTLTISSLQPEDVATYFCQQGRMLPWTFGGGTKVEIKR |
| < 0.001 nM | < 1e-07 s⁻¹ | 82000 M⁻¹ s⁻¹ | huD1D5-V1 (antibody, human IgG4 S228P, kappa, V domains shown, humanized IgG4/kappa; tested as 293F cell supernatant on Octet; also called huCTLA4 D1D5-V1) VH: EVQLVESGGGLVKPGGSLRLSCAASGFTFSDYGMAWVRQAPGKGPEWVAFISNLAYSVYYADTETGRFTISRDDAKNSLYLQMNSLRAEDTAVYYCARSGLPYAMDYWGQGTTVTVSS VL: DIQMTQSPSSLSASVGDRVTITCRASQDISNYLNWYQQKPGKTVKLLIYYISRLHSGVPSRFSGSGSGTDFTLTISSLQPEDVATYFCQQGRMLPWTFGGGTKVEIKR |
| < 0.001 nM | < 1e-07 s⁻¹ | 115000 M⁻¹ s⁻¹ | huD1D5-V3 (antibody, human IgG4 S228P, kappa, V domains shown, humanized IgG4/kappa; tested as 293F cell supernatant on Octet; also called hu CTLA4 D1D5-V3) VH: EVQLVESGGGLVKPGGSLRLSCAASGFTFSDYGMAWVRQAPGKGLEWVAFISNLAYSVYYADTETGRFTISRDDAKNSLYLQMNSLRAEDTAVYYCARSGLPYAMDYWGQGTTVTVSS VL: DIQMTQSPSSLSASVGDRVTITCRASQDISNYLNWYQQKPGKTVKLLIYYISRLHSGVPSRFSGSGSGTDFTLTISSLQPEDVATYFCQQGRMLPWTFGGGTKVEIKR |
| 2.08 nM | 0.000476 s⁻¹ | 229000 M⁻¹ s⁻¹ | huC1D1-V5 (antibody, human IgG4 S228P, kappa, V domains shown, humanized IgG4/kappa; tested as 293F cell supernatant on Octet; also called hu CTLA4 C1D1-V5) VH: EVQLVESGGGLVQPGRSLRLSCTASGFTFSDNWMNWVRQAPGKGLEWVAQIRNKPYNYETYYSDSVKGRFTISRDDSKSIVYLQMNSLKTEDTAVYYCTGGMDYWGQGTTVTVSS VL: DIQMTQSPSSLSASVGDRVTITCGASEIIYGALNWYQQKPGKSPKLLIYGATNLADGVPSRFSGSGSGTDFTLTISSLQPEDVATYYCQKILSPPPWTFGGGTKVEIKR |
